Drawing on patent US20140294898A1 (published 2014), this text covers IC50 for nine molecules.

B1: Compound No. 71 (peptide)
peptide: FFXGDVFYGWYLCG
HELM: PEPTIDE1{[O=C(C[*:3])[*:2]].F.[meF].[CCCC[C@@H](C(=O)[*:2])N(C)[*:1]].[Sar].D.V.[meF].Y.[Sar].W.Y.L.C.G.[am]}$PEPTIDE1,PEPTIDE1,1:R3-14:R3$$$V2.0
SMILES: CCCC[C@H]1C(=O)N(C)CC(=O)N[C@@H](CC(=O)O)C(=O)N[C@@H](C(C)C)C(=O)N(C)[C@@H](Cc2ccccc2)C(=O)N[C@@H](Cc2ccc(O)cc2)C(=O)N(C)CC(=O)N[C@@H](Cc2c[nH]c3ccccc23)C(=O)N[C@@H](Cc2ccc(O)cc2)C(=O)N[C@@H](CC(C)C)C(=O)N[C@H](C(=O)NCC(N)=O)CSCC(=O)N[C@@H](Cc2ccccc2)C(=O)N(C)[C@@H](Cc2ccccc2)C(=O)N1C
notes: macrocyclic peptide cyclized via the ClAc moiety with the downstream cysteine; parent of the Formula II series
B2: Compound No. 84 (peptide)
peptide: FFXGDVFYAWYLCG
HELM: PEPTIDE1{[O=C(C[*:3])[*:2]].F.[meF].[CCCC[C@@H](C(=O)[*:2])N(C)[*:1]].[Sar].D.V.[meF].Y.[meA].W.Y.L.C.G.[am]}$PEPTIDE1,PEPTIDE1,1:R3-14:R3$$$V2.0
SMILES: CCCC[C@H]1C(=O)N(C)CC(=O)N[C@@H](CC(=O)O)C(=O)N[C@@H](C(C)C)C(=O)N(C)[C@@H](Cc2ccccc2)C(=O)N[C@@H](Cc2ccc(O)cc2)C(=O)N(C)[C@@H](C)C(=O)N[C@@H](Cc2c[nH]c3ccccc23)C(=O)N[C@@H](Cc2ccc(O)cc2)C(=O)N[C@@H](CC(C)C)C(=O)N[C@H](C(=O)NCC(N)=O)CSCC(=O)N[C@@H](Cc2ccccc2)C(=O)N(C)[C@@H](Cc2ccccc2)C(=O)N1C
notes: macrocyclic peptide cyclized via the ClAc moiety with the downstream cysteine; variant of Compound No. 71 (mAla at 9)
B3: Compound No. 83 (peptide)
peptide: FFXGDVFAGWYLCG
HELM: PEPTIDE1{[O=C(C[*:3])[*:2]].F.[meF].[CCCC[C@@H](C(=O)[*:2])N(C)[*:1]].[Sar].D.V.[meF].A.[Sar].W.Y.L.C.G.[am]}$PEPTIDE1,PEPTIDE1,1:R3-14:R3$$$V2.0
SMILES: CCCC[C@H]1C(=O)N(C)CC(=O)N[C@@H](CC(=O)O)C(=O)N[C@@H](C(C)C)C(=O)N(C)[C@@H](Cc2ccccc2)C(=O)N[C@@H](C)C(=O)N(C)CC(=O)N[C@@H](Cc2c[nH]c3ccccc23)C(=O)N[C@@H](Cc2ccc(O)cc2)C(=O)N[C@@H](CC(C)C)C(=O)N[C@H](C(=O)NCC(N)=O)CSCC(=O)N[C@@H](Cc2ccccc2)C(=O)N(C)[C@@H](Cc2ccccc2)C(=O)N1C
notes: macrocyclic peptide cyclized via the ClAc moiety with the downstream cysteine; variant of Compound No. 71 (Ala at 8)
B4: Compound No. 72 (peptide)
peptide: AFXGDVFYGWYLCG
HELM: PEPTIDE1{[O=C(C[*:3])[*:2]].A.[meF].[CCCC[C@@H](C(=O)[*:2])N(C)[*:1]].[Sar].D.V.[meF].Y.[Sar].W.Y.L.C.G.[am]}$PEPTIDE1,PEPTIDE1,1:R3-14:R3$$$V2.0
SMILES: CCCC[C@H]1C(=O)N(C)CC(=O)N[C@@H](CC(=O)O)C(=O)N[C@@H](C(C)C)C(=O)N(C)[C@@H](Cc2ccccc2)C(=O)N[C@@H](Cc2ccc(O)cc2)C(=O)N(C)CC(=O)N[C@@H](Cc2c[nH]c3ccccc23)C(=O)N[C@@H](Cc2ccc(O)cc2)C(=O)N[C@@H](CC(C)C)C(=O)N[C@H](C(=O)NCC(N)=O)CSCC(=O)N[C@@H](C)C(=O)N(C)[C@@H](Cc2ccccc2)C(=O)N1C
notes: macrocyclic peptide cyclized via the ClAc moiety with the downstream cysteine; variant of Compound No. 71 (Ala at 1)
B5: Compound No. 80 (peptide)
peptide: FFXGDAFYGWYLCG
HELM: PEPTIDE1{[O=C(C[*:3])[*:2]].F.[meF].[CCCC[C@@H](C(=O)[*:2])N(C)[*:1]].[Sar].D.A.[meF].Y.[Sar].W.Y.L.C.G.[am]}$PEPTIDE1,PEPTIDE1,1:R3-14:R3$$$V2.0
SMILES: CCCC[C@H]1C(=O)N(C)CC(=O)N[C@@H](CC(=O)O)C(=O)N[C@@H](C)C(=O)N(C)[C@@H](Cc2ccccc2)C(=O)N[C@@H](Cc2ccc(O)cc2)C(=O)N(C)CC(=O)N[C@@H](Cc2c[nH]c3ccccc23)C(=O)N[C@@H](Cc2ccc(O)cc2)C(=O)N[C@@H](CC(C)C)C(=O)N[C@H](C(=O)NCC(N)=O)CSCC(=O)N[C@@H](Cc2ccccc2)C(=O)N(C)[C@@H](Cc2ccccc2)C(=O)N1C
notes: macrocyclic peptide cyclized via the ClAc moiety with the downstream cysteine; variant of Compound No. 71 (Ala at 6)
B6: Compound No. 77 (peptide)
peptide: FFXADVFYGWYLCG
HELM: PEPTIDE1{[O=C(C[*:3])[*:2]].F.[meF].[CCCC[C@@H](C(=O)[*:2])N(C)[*:1]].[meA].D.V.[meF].Y.[Sar].W.Y.L.C.G.[am]}$PEPTIDE1,PEPTIDE1,1:R3-14:R3$$$V2.0
SMILES: CCCC[C@H]1C(=O)N(C)[C@@H](C)C(=O)N[C@@H](CC(=O)O)C(=O)N[C@@H](C(C)C)C(=O)N(C)[C@@H](Cc2ccccc2)C(=O)N[C@@H](Cc2ccc(O)cc2)C(=O)N(C)CC(=O)N[C@@H](Cc2c[nH]c3ccccc23)C(=O)N[C@@H](Cc2ccc(O)cc2)C(=O)N[C@@H](CC(C)C)C(=O)N[C@H](C(=O)NCC(N)=O)CSCC(=O)N[C@@H](Cc2ccccc2)C(=O)N(C)[C@@H](Cc2ccccc2)C(=O)N1C
notes: macrocyclic peptide cyclized via the ClAc moiety with the downstream cysteine; variant of Compound No. 71 (mAla at 4)
B7: Compound No. 67 (peptide)
peptide: FANPHLGWSWFXRCG
HELM: PEPTIDE1{[O=C(C[*:3])[*:2]].F.[meA].N.P.H.L.[Sar].W.S.W.[meF].[CCCC[C@@H](C(=O)[*:2])N(C)[*:1]].R.C.G.[am]}$PEPTIDE1,PEPTIDE1,1:R3-15:R3$$$V2.0
SMILES: CCCC[C@H]1C(=O)N[C@@H](CCCNC(=N)N)C(=O)N[C@H](C(=O)NCC(N)=O)CSCC(=O)N[C@@H](Cc2ccccc2)C(=O)N(C)[C@@H](C)C(=O)N[C@@H](CC(N)=O)C(=O)N2CCC[C@H]2C(=O)N[C@@H](Cc2c[nH]cn2)C(=O)N[C@@H](CC(C)C)C(=O)N(C)CC(=O)N[C@@H](Cc2c[nH]c3ccccc23)C(=O)N[C@@H](CO)C(=O)N[C@@H](Cc2c[nH]c3ccccc23)C(=O)N(C)[C@@H](Cc2ccccc2)C(=O)N1C
notes: macrocyclic peptide cyclized via the ClAc moiety with the downstream cysteine
B8: Compound No. 69 (peptide)
peptide: FANPHLGWSWFXRCG
HELM: PEPTIDE1{[O=C(C[*:3])[*:2]].F.[meA].N.P.H.L.[Sar].W.S.W.F.[CCCC[C@@H](C(=O)[*:2])N(C)[*:1]].R.C.G.[am]}$PEPTIDE1,PEPTIDE1,1:R3-15:R3$$$V2.0
SMILES: CCCC[C@H]1C(=O)N[C@@H](CCCNC(=N)N)C(=O)N[C@H](C(=O)NCC(N)=O)CSCC(=O)N[C@@H](Cc2ccccc2)C(=O)N(C)[C@@H](C)C(=O)N[C@@H](CC(N)=O)C(=O)N2CCC[C@H]2C(=O)N[C@@H](Cc2c[nH]cn2)C(=O)N[C@@H](CC(C)C)C(=O)N(C)CC(=O)N[C@@H](Cc2c[nH]c3ccccc23)C(=O)N[C@@H](CO)C(=O)N[C@@H](Cc2c[nH]c3ccccc23)C(=O)N[C@@H](Cc2ccccc2)C(=O)N1C
notes: as for B7
B9: Compound No. 68 (peptide)
peptide: FANPHLGWSWSXRCG
HELM: PEPTIDE1{[O=C(C[*:3])[*:2]].F.[meA].N.P.H.L.[Sar].W.S.W.S.[CCCC[C@@H](C(=O)[*:2])N(C)[*:1]].R.C.G.[am]}$PEPTIDE1,PEPTIDE1,1:R3-15:R3$$$V2.0
SMILES: CCCC[C@H]1C(=O)N[C@@H](CCCNC(=N)N)C(=O)N[C@H](C(=O)NCC(N)=O)CSCC(=O)N[C@@H](Cc2ccccc2)C(=O)N(C)[C@@H](C)C(=O)N[C@@H](CC(N)=O)C(=O)N2CCC[C@H]2C(=O)N[C@@H](Cc2c[nH]cn2)C(=O)N[C@@H](CC(C)C)C(=O)N(C)CC(=O)N[C@@H](Cc2c[nH]c3ccccc23)C(=O)N[C@@H](CO)C(=O)N[C@@H](Cc2c[nH]c3ccccc23)C(=O)N[C@@H](CO)C(=O)N1C
notes: as for B7

The target of one experiment is T1, hPDL1(19-239)-TVMV-His (human, UniProt Q9NZQ7 19-239).
T1 construct: The construct name says 19-239, the running text says amino acids 18-239; Expressed in HEK293T cells; also called PD-L1-His; PD-L1-TVMV-His
T1 sequence (Q9NZQ7 other isoform, or with tags, fused parts or gaps limits assumed): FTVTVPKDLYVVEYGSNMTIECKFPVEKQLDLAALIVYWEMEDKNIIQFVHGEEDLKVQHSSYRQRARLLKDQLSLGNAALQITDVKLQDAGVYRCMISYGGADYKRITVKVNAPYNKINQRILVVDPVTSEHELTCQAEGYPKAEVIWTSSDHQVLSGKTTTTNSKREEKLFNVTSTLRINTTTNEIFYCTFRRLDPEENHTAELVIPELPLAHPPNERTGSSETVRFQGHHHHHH
The experiment can be described thus: HTRF competition, PD-1-Ig (20 nM) binding to human PD-L1-His (10 nM). As to the method: (§1) All binding studies were performed in an HTRF assay buffer consisting of dPBS supplemented with 0.1% (w/v) bovine serum albumin and 0.05% (v/v) Tween-20. […] PD-L1 fusion proteins from either human, cynomologous macaques, or mouse were used. HTRF detection was achieved using europium crypate-labeled anti-Ig monoclonal antibody (1 nM final) and allophycocyanin (APC) labeled anti-His monoclonal antibody (20 nM final). Antibodies were diluted in HTRF detection buffer and 5 μl was dispensed on top of binding reaction. The reaction was allowed to equilibrate for 30 minutes and signal (665 nm/620 nm ratio) was obtained using an EnVision fluorometer. […]
HTRF experiments were performed essentially as outlined supra. Variant macrocyclic peptides were created as outlined herein.
B1 registered an IC50 of 7 nM.
The molecule B2 returned an IC50 of 42 nM.
B3 gave an IC50 of 35 nM.
As to B4, the IC50 amounted to 4230 nM.
B5: the IC50 is 264 nM.
B6 returned an IC50 of 24 nM.

The target of a further experiment is T1, hPDL1(19-239)-TVMV-His. The experiment is described as above. The source holds these as a separate data set. As to the method:
as §1
HTRF Experiments were performed essentially as outlined supra. Variant macrocyclic peptides were created as outlined herein.
The molecule B7 had an IC50 of 108 nM.
B8 returned an IC50 of 77 nM.
B9 yielded an IC50 of 2060 nM.

Usually IC50 stands for the concentration needed to halve the response being measured.
